B1: Carboxyl transferase (Cthe_0699) (enzyme, UniProt A3DDA5 1-516, looked up)
chain: MDKVDKIGLLREKLAQVEQGGGAEKIAKQHDAGKMTARERIQALFDENSFVEIDTFVETRSIDFDMQKKKVPGDGVVTGYGSIDGRLVFVAAQDFTVIGGSLGEMHAAKITKVMDMAMKMGAPFISINDSGGARIEEGIDALKGFGDIFYRNTLASGVIPQISVIMGPCAGGAVYSPAITDFIFMVDKTSQMFITGPQVIKSVTGEDVTFEKLGGAETHNSISGVAHFRSSSEKECIEQIKKLISYLPDNNLSDVPIVPTQDDINRITDNLVDIIPQDSNKPYDMMEIITSVVDNGDFFEIQKDFAKNIIIGFGRMNGGTVGIVANQPKVAAGVLDVNSSDKAARFVRFCDAFNIPIITFTDVPGYLPGVGQEHSGVIRHGAKLLYAFSEATVPKINVIVRKAYGGAYIAMNSKHLGADMVFAWPSAEIAVMGPEGAANIIFKKDIAAADDPMETRKRLIEEYREKFSNPYVAASRGYVDDVIDPATTRIRLISALEMLASKRENRPAKKHGNIPL
notes: carboxyl transferase with two carboxyl transferase domains, Clostridium thermocellum ATCC 27405, locus Cthe_0699, 56 kDa; also called spots 4 and 15; source: endogenous, C. thermocellum membrane fraction solubilised with 1.0% DDM
B2: Ferritin and Dps (Cthe_0016) (natural protein, UniProt A3DBC9 1-159, looked up)
chain: MSKLYDNLNEQMNFELESAYIYATMSAYLDSLNMKGMTHFFDEQVKEEMEHAGKIKKFLQDTGYGIKYRPLNPGDGKFDSIEDVFKKALAHEKTVTSRINDLVKQAREEGDQRVLNLLAWFVDEQIEEENMFGVLVERLERINGHWNGLYILDKELGER
notes: ferritin (annotated Ferritin and Dps), Clostridium thermocellum ATCC 27405, locus Cthe_0016, 18.6 kDa; also called spots 6 and 7; source: endogenous, C. thermocellum membrane fraction solubilised with 1.0% DDM; copies: 24
B3: Ornithine carbamoyltransferase (Cthe_1869) (enzyme, UniProt A3DGL1 1-307, looked up)
chain: MEHLISLHDLTVEDFESIFKLAEKLKRQQKEGIPHHLLKGKTLGMIFTKSSTRTRVSFEVGMYQLGGYPLFLSANDIQLGRGETIYDTAQVLSRYVDGIMIRTFAQSDVEDLARYGNVPVINGLTDLMHPCQILADLFTIYEHKGTLKGLKLAYVGDGNNVANSLLHGCAKVGMDIAVASPKGYECDSRIVEEAKEDAKASGANILLTEDPEEAIKDADVVYTDTWVSMGQESEKEERIKVFMPYQVNNTLFSKAHEDAIFLHCLPAYRGYEVTEDVIDGSQSVIFDEAENRLHVQKAIMALLMGNK
notes: ornithine carbamoyltransferase, Clostridium thermocellum ATCC 27405, locus Cthe_1869, 34 kDa; also called OTCase; spot 27; source: endogenous, C. thermocellum membrane fraction solubilised with 1.0% DDM
B4: ABC transporter related protein (Cthe_3148) (natural protein, UniProt A3DK64 1-632, looked up)
chain: MENNVKKNKKSIVLRLFKDILEFYPVMLPVAIVCILFNATISSIPAVFMQNVIAIVENNWRTGDWNAVGGRILSLVAVLVAFYTLSILSGIAYNQMMAIITQGTLKKFRCKMFARMQTLPIKYVDTHNHGDIMSVYTNDIDTLRQMISQSFPQLLLSGITVLTVFSIMVYFCLWLTIIVLIGVIAMFFVTRRVGGGSAKYFIRQQKALGRVEGFIEEMMNGQKVIKVFCREEEVKKDFDKLNEALFDDARKANRYANILAPILNNIGNVLYVFVAITGGVLLVTNAPNVSLSGLSMGISIVVPFLNMTKQFVGNINQVSQQINAVIMGLAGAQRIYELIDEEPEQDDGYVTLVNVREENGQLIECEERTGIWAWKHPHSSDGSVTYTKLMGDVRLFNVDFEYEPGKSVLHDISLYAKPGQKVAFVGATGAGKTTITNLLNRFYDIADGKIRYDGININKIKKSDLRRAVGIVLQDTNLFTGTVMDNIRYGKLDATDEECIAAAKLAGADDFIRRLPDGYYTMLTENGANLSQGQRQLISIARVAVADPPVMILDEATSSIDTRTEAIVQRGMDALMEGRTVFVIAHRLSTVKNANVIIVLDHGRIIERGTHEELIAQKGQYYQLYTGAFELE
notes: ABC transporter related protein with fused ABC and IM domains, Clostridium thermocellum ATCC 27405, locus Cthe_3148, 70 kDa; also called ABC transporter with fused ABC and IM domains; Class 1 ABC transporter; source: endogenous, C. thermocellum membrane fraction solubilised with 1.0% DDM
B5: Polynucleotide phosphorylase/polyadenylase (Cthe_0418) (enzyme, UniProt A3DCH7 1-700, looked up)
chain: MYKTFSMELAGRTLTIETGKLAQLANGSVLVRYGDTVVLSTATASATPREGVDFFPLSVDYEERLYAVGKIPGGFIKREGKPSEKAILTARVIDRPLRPLFPKDLRNDVAIVNTVLSVDQDNSPELAALLGSSIAVSISDIPFNGPVGAVILGLIDGEVIINPTEKQKEISQMYVTLAGTRNKIVMIEAGANEVPDEVMLDAIKKGHEEIKKIVDFIDGIVKEVGKPKFEYESAEVPEEIFNAVREYAYDKMREAVLAVDKQVRDKNIDDLTKEITEHFAEVFPEMEPAIKEAIYKLEKKVVREYILEEGRRVDGRRLDEIRPLSAEVGLLPRVHGSGLFTRGQTQVLSSVTLGAMGDVQILDGIDTEETKRYMHHYNFPGFSVGEAKSSRGPGRREIGHGALAERALEPVIPSEEEFPYTIRVVSEVLMSNGSTSQGSVCGSTLALMDAGVPIKKPVAGISAGLVVDENNPDRFVTFMDIQGIEDFFGDMDFKVAGTKDGITAIQVDIKIDGLTEEIIKQAFELTRKGRLYIIDNVLLKAIPEPRKQMSKYAPKIISTTINPDKIREVIGPGGKMINKIIDETGVKIDINDDGRVYIFSSDIQAGKRARSMIEAIAKDIEPGQVFLGRVIRVTSFGAFVEFLPGKEGLVHISKLDKKRVERVEDIVRVGDQILVKVIEIDKQGRVNLSRKDAMEDEWDK
notes: polynucleotide phosphorylase/polyadenylase, Clostridium thermocellum ATCC 27405, locus Cthe_0418, 77 kDa; also called Polyribonucleotide phosphorylase; PNPase; source: endogenous, C. thermocellum membrane fraction solubilised with 1.0% DDM

Molecular target: the molecule itself
Assay: native gel or EMSA; two-dimensional blue native PAGE (4-15% gel) then SDS-PAGE of the membrane fraction solubilised at 4°C in 1.0% (w/v) DDM; about 40 μg protein; spots identified by MALDI-TOF/TOF; complex mass estimated from BN-PAGE markers

Protein	stoichiometry N
B1	4
B2	24
B3	3
B4	2
B5	2
